Source: patent US20230051715A1 (MABWELL THERAPEUTICS, published 2023)
Values belong to the binder of their own block, whether it stands above or below them.

Legend:
[1] = target: T1, full-length human C1s (produced in house) (human, UniProt P09871 16-688); test: ELISA, plate coated with 200 ng/well HuC1s, OD450nm
T1 construct: Called full-length; Partly auto-cleaved at R422-I423 on blots; also called HuC1s; Hu C1s
T1 sequence: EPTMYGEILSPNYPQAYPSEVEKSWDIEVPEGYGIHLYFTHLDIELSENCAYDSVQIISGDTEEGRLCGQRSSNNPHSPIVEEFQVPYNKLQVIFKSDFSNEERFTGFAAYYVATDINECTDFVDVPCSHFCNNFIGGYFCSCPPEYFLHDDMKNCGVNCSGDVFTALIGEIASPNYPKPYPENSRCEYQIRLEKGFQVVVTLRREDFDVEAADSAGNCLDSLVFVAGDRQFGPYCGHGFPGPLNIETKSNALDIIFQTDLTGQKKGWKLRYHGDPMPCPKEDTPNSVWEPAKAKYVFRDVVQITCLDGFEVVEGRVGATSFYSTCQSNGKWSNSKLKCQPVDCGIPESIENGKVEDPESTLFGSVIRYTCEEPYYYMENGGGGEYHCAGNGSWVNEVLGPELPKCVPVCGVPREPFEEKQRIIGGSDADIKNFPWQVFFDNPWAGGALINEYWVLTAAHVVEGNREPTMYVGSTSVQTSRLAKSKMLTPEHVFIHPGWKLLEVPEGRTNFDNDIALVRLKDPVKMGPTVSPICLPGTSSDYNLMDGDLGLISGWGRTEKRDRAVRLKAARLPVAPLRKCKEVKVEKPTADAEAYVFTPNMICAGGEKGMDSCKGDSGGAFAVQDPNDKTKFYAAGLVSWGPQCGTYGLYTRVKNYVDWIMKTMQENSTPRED
Method: The next morning, plates were blocked with SuperBlock T20 blocking buffer (Thermo Scientific 37536) for 1 h with gentle shaking. Then, various concentrations of anti-C1s antibodies diluted in SuperBlock T20 blocking buffer were added to the plates and incubated for 1 h with gentle shaking. Mouse IgG (Sigma-Aldrich I5381) and Human IgG1 (BioXCell BP0297) were used as negative controls. The plates were washed before incubating with HRP conjugated secondary antibodies diluted in SuperBlock T20 blocking buffer (goat anti-mouse IgG (H+L) cross-adsorbed secondary antibody HRP (Invitrogen G-21040) or goat anti-human IgG antibody, HRP conjugate (Millipore AP309P)) for 1 h with gentle shaking. At last, the plates were washed and color developed with ELISA liquid substrate (Sigma-Aldrich), followed by stopping the reaction with addition of the same volume of […] 1M H₂SO₄. Bound antibody was measured by absorbance at OD₄₅₀ₙₘ.

[2] = target: T2, human C1s proenzyme (CompTech A103) (human, UniProt P09871 16-688); test: ELISA, C1s coated on plate
T2 construct: also called proenzyme human C1s (native C1s)
T2 sequence (looked up): T1 sequence
Method: (§1) ELISA was carried out by first coating 96-well plates with 200 ng/well of human active C1s (CompTech A104, FIG. 3F) or human C1s proenzyme (CompTech A103, FIG. 3G) proteins overnight. The next morning, plates were blocked with SuperBlock T20 blocking buffer (Thermo Fisher Scientific Inc., Catalog No. 37536) for 1 h with gentle shaking. Then, various concentrations of anti-C1s antibodies diluted in SuperBlock T20 blocking buffer were added to the plates and incubated for 1 h with gentle shaking. Human IgG1 (BioXCell BP0297) was used as a negative control. The plates were washed before incubating with HRP conjugated secondary antibodies diluted in SuperBlock T20 blocking buffer (goat anti-human IgG antibody, HRP conjugate (Millipore AP309P)) for 1 h with gentle shaking. At last, the plates were washed and color developed with ELISA liquid substrate (Sigma-Aldrich), followed by stopping the reaction with addition of the same volume of […] 1M H₂SO₄. Bound antibody was measured by absorbance at OD₄₅₀ₙₘ.
(§2) The EC₅₀ for each antibody and target combination was determined as follows: for antibody 2-7, EC₅₀ for human active C1s is 12 ng/ml and EC₅₀ for human C1s proenzyme is 9 ng/ml; for antibody 2-8, EC₅₀ for human active C1s is 12 ng/ml and EC₅₀ for human C1s proenzyme is 10 ng/ml; for variant hz2-7(1L2), EC₅₀ for human active C1s is 13 ng/ml and EC₅₀ for human C1s proenzyme is 12 ng/ml; and for variant hz2-8(H1L2 G80A/T82A), EC₅₀ for human active C1s is 10 ng/ml and EC₅₀ for human C1s proenzyme is 8 ng/ml.

[3] = target: T3, active human C1s (CompTech A104 C1s Enzyme) (human, UniProt P09871 16-688); test: ELISA, C1s coated on plate
T3 construct: also called human active C1s; active C1s protein
T3 sequence (looked up): T1 sequence
Method: as §1, §2

B2: Anti-C1s antibody hz2-8 (H1L2 G80A/T82A) (antibody, V domains shown)
VH: QVQLVQSGAEVKKPGASVKVSCKASGFNIKEYYMHWVRQAPEQGLEWMGWIDPENADAIYAQKFQGRVTITADTSTNTAYMELSSLRSEDTAVYYCARSRLFFAYWGQGTLVTVSS
VL: DIQMTQSPKSLSASVGDRVTITCRASQDVRTALDWYQQKPGQSPKLLIYSASYRYSGVPSRFSGSGSGTDFTLTISSLQPEDFATYYCQQQYTTPYTFGQGTKLEIKR
notes: Humanized variant with G80A and T82A in HC CDR2 (already in the entry), human IgG1 / kappa
EC50 [1]: 4 ng/mL
EC50 [2]: 8 ng/mL
EC50 [3]: 10 ng/mL

B4: Anti-C1s antibody hz2-7(H1L2) (antibody, V domains shown)
VH: EVQLLESGGGLVQPGGSLRLSCAASGFTFSNYFMNWVRQAPGKGLEWVSEIRLKFTNYATHYADSVKGRFTISRDDSKSTLYLQMNSLRAEDTAVYYCTRDYGSRNGYFDYWGQGTLVTVSS
VL: DIVMTQTPLSLPVTPGEPASISCRSSKSLLHSNGNTFLYWFLQKPGQSPQLLIYRMSNLASGVPDRFSGSGSGTDFTLKISRVEAEDVGVYYCMQHLEYPYTFGGGTKLEIKR
notes: Humanized, human IgG1 / kappa; also called hz2-7(1L2)
EC50 [1]: 6 ng/mL
EC50 [2]: 12 ng/mL
EC50 [3]: 13 ng/mL

Second part, the binder after the results:

EC50 [1]: 5 ng/mL
EC50 [2]: 10 ng/mL
EC50 [3]: 12 ng/mL
B1: Anti-C1s antibody 2-8 (antibody, V domains shown)
VH: EVQLQQSGAELVRPGALVKLSCKASGFNIKEYYMHWVKQRPEQGLEWIGWIDPENGDTIYDPKFQGKASITADTSSNTAYLQLSSLTSEDTAVYYCARSRLFFAYWGQGTLVTVSA
VL: DIVMTQSHKFMSTSVGDRVSFTCKASQDVRTAVDWYQQKPGQSPKLLIYSASYRYTGVPDRFTGTGSGTDFTFTISSVQAEDLAVYFCQQQYTTPYTFGGGTKLEIKT
notes: the HC/LC entries may hold it too; also called clone 2-8

EC50 [1]: 6 ng/mL
EC50 [2]: 9 ng/mL
EC50 [3]: 12 ng/mL
B3: Anti-C1s antibody 2-7 (antibody, human IgG1, kappa, V domains shown)
VH: EVKLEESGGGLVPPGGSMKLSCVASGFTFSNYFMNWVRQSPEKGLEWVAEIRLKFTNYATHYAESVEGRFTISRDDSKSSVYLQMNNLRAEDTGIYYCTRDYGSRNGYFDYWGQGTTLTVSS
VL: DIVMTQAAPSVPVTPGESVSISCRSSKSLLHSNGNTFLYWFLQRPGQSPQLLIYRMSNLASGVPDRFSGSGSGTAFTLRVSRVEAEDVGIYYCMQHLEYPYTFGGGTKLEIKT
notes: the HC/LC entries may hold it too; also called clone 2-7
